This note sets out measurements from patent publication US20250011430A1 (GUANGZHOU BIO GENE TECHNOLOGY, published 2025).

Numbering of substitutions follows the chain as printed.

Assay [1] has as its target T1, B7H3 on cells (B7H3 on HEK293 cells; B7H3 expressed from plasmid on HEK-293T and QT6 cells) (human, UniProt Q5ZPR3 29-534).
T1 construct: whole, on cells; also called HEK293 B7H3 proteins; human B7H3
T1 sequence (looked up): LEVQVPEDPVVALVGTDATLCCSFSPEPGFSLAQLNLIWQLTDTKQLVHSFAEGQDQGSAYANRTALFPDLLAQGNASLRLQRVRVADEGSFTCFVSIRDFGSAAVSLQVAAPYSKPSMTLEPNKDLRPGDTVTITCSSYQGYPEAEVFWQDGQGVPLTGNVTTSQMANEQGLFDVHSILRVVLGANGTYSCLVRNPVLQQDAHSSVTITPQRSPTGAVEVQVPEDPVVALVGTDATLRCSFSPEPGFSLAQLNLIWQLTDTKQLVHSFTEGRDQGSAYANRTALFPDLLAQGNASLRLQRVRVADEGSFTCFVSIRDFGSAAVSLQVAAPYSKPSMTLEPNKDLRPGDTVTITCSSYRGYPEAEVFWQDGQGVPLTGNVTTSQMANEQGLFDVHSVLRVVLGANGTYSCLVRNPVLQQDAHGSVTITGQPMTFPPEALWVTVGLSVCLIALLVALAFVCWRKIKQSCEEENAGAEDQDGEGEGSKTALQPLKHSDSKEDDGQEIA
The assay can be described thus: flow cytometry on HEK293 cells. As for the experimental part: (§1) 2×10⁵ HEK293 cells were resuspended with PBS+5% BSA and incubated for 30 min at 4° C. Different concentrations of humanized antibody (5 μg/mL to 0.002286 μg/mL, 3-fold gradient dilution) were added and incubated for 60 min at 4° C. After centrifugation and washing, a PBS+5% BSA solution containing an FITC-labeled secondary antibody (1:200, sigma, F9512) was added and incubated on ice for 30 min in the dark. Cells were washed three times before the flow cytometry analysis. EC50 was calculated using GraphPad software.
In general terms: Flow cytometry measures light scatter and fluorescence of single cells or particles in a stream.

In assay [2] the target is T1, B7H3 on cells (B7H3 on HEK293 cells; …). The assay can be described thus: flow cytometry on HEK293 cells (text value, conflicts with Table 2). On the procedure:
as §1

Assay [3] shares this target. The experiment in a line: flow cytometry on HEK293 cells, FITC-labelled secondary antibody; y axis without title. As for the experimental part:
5×10⁵ HEK293 cells were resuspended with PBS+5% BSA and incubated for 30 min at 4° C. Different concentrations of antibody (1 μg/mL to 0.01 μg/mL, 10-fold gradient dilution) were added and incubated for 60 min at 4° C. After centrifugation and washing, a PBS+5% BSA solution containing an FITC-labeled secondary antibody (1:200, sigma, F9512) was added and incubated on ice for 30 min in the dark. Cells were washed three times before the flow cytometry analysis.
Using the flow cytometry method, the control antibodies (huM30, Eno) and the 2B8, 26B8, 23H1 and 6F7 antibody were tested for their binding abilities to HEK293 B7H3 proteins at a final concentration of 1 μg/mL, 0.1 μg/mL and 0.01 μg/mL, respectively. Compared with the control antibodies, the 2B8, […], 23H1 and 6F7 antibody each have the same or better binding ability to the HEK293 B7H3 proteins.

B1: chimeric antibody ch2B8 (antibody, V domains shown)
VH: QVQLQQSGPELVRPGVSVKISCKVSGYTFTDGAMHWVKRSHAKSLEWIGIINTNSGNTNYNQKFQGKATMTVDKSSSTAYMELARLTSEDSAIYYCARGVFYYGYGAWFAYWGQGTLVTVSA
VL: DVQITQSPSYLTASPGETIIINCRASKTISNYLAWYQEKPGKTNKLLIYSGSTLQSGIPSRFSGSGSDTDFTLTISSLEPEDFAMYYCQQHHEYPLTFGAGTKLELKR
The term EC50 denotes the concentration that produces a half-maximal response. As to B1, the EC50 in assay [1] was determined as 0.132 mg/L.

B2: humanized 6F7 with light chain variable region LV1 (antibody, V domains shown)
VH: EVQLVESGGGLVQPGGSLRLSCAASGFTFTDYYMSWVRQAPGKGLEWVAFIRNKANGYTTEYSASVKGRFTISRDDSKNSLYLQMNSLRAEDTAVYYCARDSHYRPFAYWGQGTLVTVSS
VL: DIVMTQSPLSLPVTPGEPASISCKSSQSLLNSGNQNNYLTWYLQKPGQSPQLLIYLASTRDSGVPDRFSGSGSGTDFTLKISRVEAEDVGVYYCQNDYTYPLTFGGGTKVEIKR
notes: also called hz6F7L1; h6F7H1L1
In assay [1], B2 yielded an EC50 of 0.604 mg/L.

B3: humanized 6F7 with light chain variable region LV2 (antibody, V domains shown)
VH: B2 VH
VL: DIVMTQSPDSLAVSLGERATINCKSSQSLLNSGNQNNYLTWYQQKPGQPPKLLIYLASTRDSGVPDRFSGSGSGTDFTLTISSLQAEDVAVYYCQNDYTYPLTFGGGTKVEIKR
notes: also called hz6F7L2; h6F7H1L2
In turn, B3 had an EC50 in assay [1] of 0.41 mg/L.

B4: chimeric antibody ch26B6 (antibody, V domains shown)
VH: EVQLQQSGPELVKPGASVKISCKTSGYAFTEYTMHWVKQSQGKSLEWIGGINPNTGGTTYNQKFNGKATLTVDRSSSTAYMELRSLTSEDSAVYYCTRPYRDDGGFHWYFDVWGAGTAVTVSS
VL: QIVLTQSPAVMSTSPGEKVTMTCSASSSVSYMQWYQQKSGTSPKRWIYDTSKLTSGVPARFSGSGSGTSYSLTISSMEAEDAATYYCQQWSSNPLTFGAGTKLELKR
Consider B4, for which the EC50 in assay [1] turned out to be 0.224 mg/L; in assay [2], 0.232 mg/L.

B5: humanized 26B6 (antibody, V domains shown)
VH: EVQLVQSGAEVKKPGASVKVSCKASGYTFTEYTMHWVRQAPGQGLEWIGGINPNTGGTTYNQKFNGRVTMTRDTSISTAYMELSSLRSEDTAVYYCTRPYRDDGGFHWYFDVWGQGTLVTVSS
VL: EIVLTQSPATLSLSPGERATLSCSASSSVSYMQWYQQKPGLAPRLLIYDTSKLTSGIPDRFSGSGSGTDFTLTISRLEPEDFAVYYCQQWSSNPLTFGGGTKVEIKR
notes: also called hz26B6; h26B6
For the molecule B5, the EC50 in assay [1] was found to be 0.306 mg/L.

B6: anti-B7H3 antibody 23H1 (antibody, V domains shown)
VH: EVKLVESGGGLVQPGGSLRLSCATSGFTFTDYYMSWVRQPPGKALEWLGFIRNKVNDYTTEYSVSVKGRFTISRDNSQTILYLQMNTLRAEDSATYYCARDSPYRPFAYWGQGTLVTVSA
VL: DIVMTQSPSSLTVTAGENVTMSCKSSQTLLNNGNQKNFLTWYQQKPGQPPKLLIYLASTRESGVPDRFTGSGSGTDFTLTISSVQAEDLAVYYCQNDYTYPLTFGAGTKLELKR
As for B6, the binding result in assay [3] is on record as “binds”.

B7: chimeric antibody ch6F7 (antibody, V domains shown)
VH: B6 VH with V55A, D57G, V64A, R74S, N76D, T79S, P103H
VL: B6 VL with V3Q, N18K, T28S, N32S, K36N, F38Y, E61D
With B7, the EC50 in assay [2] came to 0.224 mg/L.

B8: humanized 2B8 (antibody, V domains shown)
VH: QVQLVQSGAEVKKPGASVKVSCKVSGYTFTDGAMHWVRQAPGQGLEWIGIINTNSGNTNYNQKFQGRVTMTRDTSISTAYMELSRLRSEDTAVYYCARGVFYYGYGAWFAYWGQGTLVTVSS
VL: DIQLTQSPSFLSASVGDRVTINCRASKTISNYLAWYQQKPGKAPKLLIYSGSTLQSGVPSRFSGSGSGTDFTLTISSLQPEDFATYYCQQHHEYPLTFGGGTKVEIKR
notes: also called hz2B8; h2B8
In turn, B8 came in with an EC50 in assay [1] of 0.0779 mg/L.
